Each sequence was assayed on MS2 coat protein (assay: apparent KD of MS2 coat protein, switch ON state; designed switch direction (-1 OFF switch, 1 ON switch): 1; higher = weaker reporter binding). Settings: FMN input: 0 or 200 uM; Eterna round: R93 (includes R88 designs).
In short: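 Designed RNA switches were transcribed on-chip from Illumina sequencing clusters. SNAP-549-labelled MS2 coat protein was titrated onto them in twofold steps from 0.7 or 1.5 nM to 3 µM in 100 mM Tris-HCl pH 7.5, 80 mM KCl, 4 mM MgCl2, either without or with constant ligand. Apparent KD reflects the per-design median of normalised cluster binding-curve fits.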

| Sequence | apparent KD of MS2 coat protein [nM] |
| --- | --- |
| AUGAAAGUAACACAGGAUAUCCAGGAUACAACAUGAGGAUCACCCAUGUACAUACGAACGUAUAAGGAGAAGGGUGGAUGAUCUUC [ss2-2] | 50.7 |
| AAUAAACAUGAGGAUCACCCAUGUUUUAAUAGUUGAGGAUAUAAGGGUGAAAAUAGCAUAUUAGAAGGCGAGUGUA [SameState1 Malc#14] | 32.7 |
| UAAGACGUGCAUCAGGAUAUGUUCCGAGGCACAUGAGGAUCACCCAUGUGGACGAAGCCUCGGGCACAGAAGGGAUCACUCAGAC [Laarma] | 17.2 |
| GACUGACAUGAGGAUCACCCAUGUAUUCGAGCAUGAGGAUAUAUGACACGUCAUCGACGGAUAGAAGGCAUGGAUG [JR_SS001_Sub1211] | 232 |
| AGGUAACAUGAGGAUCACCCAUGUACCGAUAAUGCAGGAUAUCGACACGAAAAUACGUGUCGAGAAGGGCAUGAAA [SS1 MT 23] | 14.3 |
| AAAAAAAAAGUCGAGGAUAUCCACAUGGUGACAUGAGGAUCACCCAUGUGAAGAAAAGCACAUGAGGAGAAGGCGACAAAAAAAA [Same State 2.7b (Tightrope mod)] | 135 |
| AAAAAACAUGAGGAUCACCCAUGUCGAAAGACGUGAGGAUAUGUACAGACUUCGGUCUGUACAGAAGGCACGAAAA [SS1 - 1038] | 18.5 |
| AACUAACAUGAGGAUCACCCAUGUAUUCAAACAUGAGGAUAUAUAACACAUCAUCGACGGAUAGAAGGCAUAAAUA [JR_SS001_Sub1206] | 92 |
| AACAAUCUAUCUGAGGAUAUAUGUCGAAAGACAUGAGGAUCACCCAUGUGAAAACAUGAAAAAACAUAGAAGGCAGAUAGAUUGA [SS2: 1136] | 28.5 |
| GACAAACAUGAGGAUCACCCAUGUAGACAUAUGGGAGGAUAUACACAGACGAAAGUCAAAGUAGAAGGCCUACAAG [77%, Mat - Mod of Eli - With 4 more C's] | 29.3 |
| AGAAAUAAAUGAGAGGAUAUCCAAAAGAAAACAUGAGGAUCACCCAUGUAAAAGAAAAUAAAAUGGGAGAAGGCUCAAAAUAAAG [80%, More Helter Skelter 2] | 23.5 |
| AAAAGACAUGAGGAUCACCCAUGUGAAAACGUGCGAGGAUAUGUAUGGAAACUAUACUGUACAGAAGGCGCGUGUC [SS1 - 82] | 19.7 |
| AAAUAAAGGACUGAGGAUAUACCACAUGAAACAUGAGGAUCACCCAUGUUAAAAAACAGAGGGUGGUAGAAGGCAGUCCACAAAC [Same State 2.5e ( so lets mod hyphema)] | 17.9 |
| CGCGAACAUGAGGAUCACCCAUGUAAAUCGCAUGUAGGAUAUGGGAUACACAUUAAGAUCCCAGAAGGGCGGAAAA [Leeroner] | 23.8 |
| CGUAAACAUGAGGAUCACCCAUGUCAAUAUGAUCAAGGAUAUGGGUUCCGAAGUGGAACACCAGAAGGUGAAUAGU [Inrea] | 377 |
| AAAACACAUGAGGAUCACCCAUGUGCCUAACUCGCAGGAUAUUUCUCGAUUAAAUGAUAGGAAGAAGGGUGAUAAA [Nob's Hobby 37 - Jieux - Same State 1] | 110 |
| AAAUAGUGCCUGGAGGAUAUGUCGCAUGACACAUGAGGAUCACCCAUGUGGUAACACAGAGGGUGGCAGAAGGCUGGGUGCAAAC [Mod 4 of Pariah 6 (Round1) by Hyphema] | 27.4 |

| Sequence | apparent KD of MS2 coat protein [nM] |
| --- | --- |
| GACAGACAUGAGGAUCACCCAUGUACAAACGUACAAGGAUAUGUGUGGAAACCGUACUAUACAGAAGGUGUAUGUC [SS1 - 91] | 42 |
| CAGGACGUAGGAUAGGAUAUAUGAAUAAUUACAUGAGGAUCACCCAUGUCCAUUUAUAUGGGAACAUAGAAGGGUUGUGGUUAUG [Mat - Same state - Malcolm Mod - D144] | 680 |
| AGGAAACAUGAGGAUCACCCAUGUAAAAAUAUGGGAGGAUAUACAAAGACGAAAGUCAAAGUAGAAGGCCUAAAAG [77%, Mat - Mod of Eli, 4] | 21.4 |
| AAAAAACAUGAGGAUCACCCAUGUCAAAAGACGUGAGGAUAUGUACAGACUUCGGUCUGUACAGAAGGCACGUAAA [SS1 - 1039] | 15.7 |
| UAACAACAUGAGGAUCACCCAUGUCAAACAAAUCGAGGAUAUGGGCAGGAUUCUUCCUAUCUAGAAGGCGAAAACA [Ricexebi] | 145 |
| UGGAAGGAGAGAGAGGAUAUCCAAAGGAAAACAUGAGGAUCACCCAUGUAGAAGGUAGGAAAUUGGGAGAAGGCUCAAGAGAGAG [salish99-ss2-117] | 17 |
| CAUCAUGCGCCUAAGGAUAUGUCUCACAAGACAUGAGGAUCACCCAUGUAGAACAAAUAAGUGAUGCAGAAGGUGGAGCGCAUGC [Edcequed] | 18.9 |
| UAAAAUAAAACAUAGGAUAUCAAAAUAAAAACAUGAGGAUCACCCAUGUGAAAACAUGAGAAGGAUGAGAAGGAAAAUAAAAUAA [Meechl SS2 R2 m1] | 25.7 |
| AAAAAAUAAAAAAAGGAUAUAAAAGGUAGUACAUGAGGAUCACCCAUGUUCUACCAAAAAAUAAAAAAGAAGGAAAAAUAAAAAA [SS2: MS2 15] | 17.6 |
| CGGAGACAUGAGGAUCACCCAUGUGAGAAGAGGCGAGGAUAUCGAAAAAAAAAAAAAAAACGAGAAGGCGCGAGAU [salish99-SS1-013] | 34 |
| GAAAAACAUGAGGAUCACCCAUGUAGAAAUAUGGGAGGAUAUACAAAGACGAAAGUCAAAGUAGAAGGCCUAUAAG [Starry Same State 1.5 (mat747 round 1 mod)] | 17.7 |
| AAAAAACAUGAGGAUCACCCAUGUCGAAAGACGUGAGGAUAUGUACAGACUUCGGUCUGUACAGAAGGCACGUCAA [SS1 - 1044] | 17.3 |
| GAAAAACAUGAGGAUCACCCAUGUAAGAUAAACACAGGAUAUGCGAAAAUAAAUAAAUAAGCAGAAGGGUGAAAAG [Mat - Same State 1 - Tesla mod - 78] | 25.7 |
| AUAACACAUGAGGAUCACCCAUGUAGAAACAAGUCAGGAUAUCCGAUCCACAUGUGAAAAGGAGAAGGGACACUAA [SS 1 Tesla 6] | 37.4 |
| GGGAGACAUGAGGAUCACCCAUGUGAGAAGAGGCGAGGAUAUCGAAAGAAAGAAGAGAAACGAGAAGGCGCGAGAU [salish99-SS1-053] | 30.3 |
| AAAAUACAUGAGGAUCACCCAUGUGAGAAAAACGCAGGAUAUGCCCGUUGAAAAAGGCGGGCAGAAGGGUGCCGAA [SameState1-III] | 69.8 |

Reference: the supplement of paper PMC9170038
